The target in this test is Aldob (aldolase B) (UniProt P05062). Description: anti-Flag co-IP, immunoblot. Conditions: reference: Akt1 wild type.

Take Akt1 (from UniProt P31749) Akt1-T308A: the “binding against the reference” value (sites T308) is “weaker”.
With Akt1 (from UniProt P31749) Akt1-S473A, the “binding against the reference” value (sites S473) is “weaker”.

These data come from article doi:10.1101/2020.06.09.141986.
